Experimental findings from patent US20260035464A1 (STAIDSON BIOPHARMA, published 2026) are described below.

Experiment [1] concerns the target T1, human BTLA (Uniprot Q7Z6A9) expressed on cells (human, UniProt Q7Z6A9 31-289). Kind of experiment: cell-based or functional assay.
Experiment [2] addresses T2, huBTLA as coated in the binding ELISA of Example 3 (tag not stated) (human, UniProt Q7Z6A9 31-157).
T2 construct: Detection was with anti-human IgG Fc
T2 sequence: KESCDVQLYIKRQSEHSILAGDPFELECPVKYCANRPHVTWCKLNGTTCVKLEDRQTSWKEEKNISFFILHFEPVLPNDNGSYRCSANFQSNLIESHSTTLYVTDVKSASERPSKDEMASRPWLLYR
Kind of experiment: ELISA, huBTLA coated at 0.333 ug/mL, anti-human IgG Fc-AP detection. The method, then:
(§1) BTLA binding of purified recombinant chimeric antibodies by ELISA: The huBTLA and rhesus monkey BTLA antigen binding ELISA was performed on the purified recombinant chimeric antibodies. Briefly, 384-well, clear flat bottom high binding plates (Corning, cat #3700) were coated overnight at 4° C. with 0.333 μg/mL of huBTLA or rhesus monkey BTLA in PBS. The following purified process was performed as described in ELISA binding assay in Example 2, except that the secondary antibody was goat anti human IgG Fc-AP (Southern Biotech, cat #2014-04).

For experiment [3], the target named is T3, human BTLA extracellular domain with C-terminal mouse IgG2a Fc tag (human; mouse, UniProt Q7Z6A9 31-157).
T3 construct: also called huBTLA with mIgG2a Fc tag; not shown: mouse IgG2a Fc, C-terminal
T3 sequence: T2 sequence
Kind of experiment: blocking ELISA, huBTLA-mIgG2a Fc coated; competitor huHVEM-His (2 ug/ml). The method, then: HVEM blocking by purified recombinant chimeric antibodies by ELISA: Human HVEM (huHVEM) blocking ELISA was performed on purified recombinant chimeric anti-BTLA antibodies. Briefly, 384-well, clear flat bottom high binding plates (Corning, cat #3700) were coated overnight at 4° C. with 0.333 μg/mL purified huBTLA with mIgG2a Fc tag in PBS (coating solution). After removing the coating solution, the plates were blocked by adding blocking buffer and incubated at 37° C. for 1 hour. Plates were then washed 3 times with wash buffer. Serial dilution of purified chimeric antibodies in PBS were added to individual well followed by incubation at 37° C. for 1 hour. Plates were washed 3 times with wash buffer. Then 30 μL per well of 2 μg/ml human HVEM with His tag (Sino Biological, cat #10334-H08H) in assay buffer was added into the reaction and incubated for 1 hour. Plates were washed 3 times with wash buffer. Then 30 μL per well of mouse anti-his-AP (Southern Biotech, cat: 4603-04) at 1:500 dilution in ELISA diluent was added, and incubated at 37° C. for 30 min, then the plates were washed 5 times with wash buffer and developed for 30 minutes with 30 μL per well of pNPP substrate. Plates were analyzed with a Bio-TEK at 405 nm. The blocking IC₅₀ value represents the antibody concentration that inhibited 50% of huHVEM binding to coated human BTLA.

In experiment [4] the target is T4, rhesus monkey BTLA extracellular domain protein with His tag (Sino Biological, cat #90250-C08H) (rhesus monkey, UniProt G7MKA9 31-157).
T4 construct: extracellular domain; Bought protein; also called His-tag-rhesus monkey BTLA; not shown: His tag
T4 sequence: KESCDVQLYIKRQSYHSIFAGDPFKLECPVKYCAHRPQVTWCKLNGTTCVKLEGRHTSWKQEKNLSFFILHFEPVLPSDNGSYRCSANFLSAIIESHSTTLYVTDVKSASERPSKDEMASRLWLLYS
Kind of experiment: ELISA, rhesus monkey BTLA coated at 0.333 ug/mL, anti-human IgG Fc-AP detection. As to the method:
as §1

Experiment [5] concerns the target T2, huBTLA as coated in the binding ELISA …. In words: ELISA, plate coated with huBTLA, detection with goat anti-human IgG Fc-AP, OD405. As to the method:
as §1

Experiment [6] addresses T5, human BTLA extracellular domain with C-terminal 10xHis tag (human, UniProt Q7Z6A9 31-157).
T5 construct: also called HuBTLA-His; His-tag-huBTLA
T5 sequence: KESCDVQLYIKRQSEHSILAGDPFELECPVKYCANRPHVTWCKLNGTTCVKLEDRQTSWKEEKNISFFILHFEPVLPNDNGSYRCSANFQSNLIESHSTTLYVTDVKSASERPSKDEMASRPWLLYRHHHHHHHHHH
In words: BLI (Octet RED96), antibody captured on AHC biosensor, His-tag-huBTLA in solution, 1:1 model. The method, then:
(§2) The following kinetic assay was performed using anti-human IgG Fc capture (AHC) biosensors (ForteBio) in kinetics buffer (PBS, 0.1% Tween-20 and 1% bovine serum albumin): (a) antibody (2 μg/mL) for 300 sec, (b) baseline for 120 sec, (c) association with purified His-tag-huBTLA (2.5, 0.5 and 0 μg/mL) and His-tag-rhesus monkey BTLA (Sino Biologcal, cat #90250-C08H) (2.5, 0.5 and 0 μg/mL) for 420 sec and (d) dissociation for 1200 sec. Data fitting and analysis was performed with Octet data analysis software 8.0 (ForteBio) using a 1:1 binding model after Savitzky-Golay filtering.

For experiment [7], the target named is T4, rhesus monkey BTLA extracellular domain …. Kind of experiment: ELISA, plate coated with rhesus monkey BTLA, detection with goat anti-human IgG Fc-AP, OD405. As to the method: as §1
Experiment [8] addresses T1, human BTLA (Uniprot Q7Z6A9) expressed …. In words: flow cytometry on huBTLA-overexpressing Expi293 cells, MFI. As to the method:
Expi293 cells stably overexpressing huBTLA were incubated with the chimeric anti-BTLA antibodies 83F2 or 86B7 in PBS containing 0.5% BSA, 1 mM EDTA, and 0.1% sodium azide (FACS buffer) for 30 minutes at 4° C. The cells were washed, and then incubated with 10 nM phycoerythrin (PE) conjugated anti-Human Fc Ab (BioLegend, cat #409304) for 20 minutes at 4° C. Cells were washed and then analyzed by flow cytometry with Attune (ThermoFisher Scientific). Data were analyzed with FlowJo software. Antibody binding is represented as median fluorescence intensity (MFI).
FACS based binding assays of humanized anti-BTLA antibodies were performed as described above in Example 3.

In experiment [9] the target is T5, human BTLA extracellular domain with …. Kind of experiment: BLI (Octet RED96), antibody on AHC biosensor, His-tag-huBTLA in solution. As to the method: as §2
(§3) Binding affinities (monovalent Kd) of humanized anti-BTLA antibodies were determined using Biolayer interferometry on the Octet RED96 instrument (ForteBio) as described above in Example 3, except for (c) association with His-tag-huBTLA ([…]) for 420 sec.
Background: Biolayer interferometry detects binding as a change in optical thickness at a sensor tip.

Experiment [10] shares this target. In words: BLI (Octet RED96), antibody on AHC biosensor, His-tag-huBTLA in solution; column head prints nM, but Koff/Kon shows the values are in M. The method, then: as §2, §3
For experiment [11], the target named is T1, human BTLA (Uniprot Q7Z6A9) expressed …. In words: flow cytometry blocking assay on huBTLA-overexpressing Expi293 cells, antibody titrated, soluble human HVEM-mouse IgG2a Fc detected. The method, then: Expi293 cells stably overexpressing huBTLA were incubated with chimeric anti-BTLA antibody 83F2 or 86B7 for 30 minutes at 4° C. The cells were washed, and then incubated with human HVEM-mouse IgG2a Fc recombinant protein (Acro Biosystems, cat #HVM-H5255) at […] concentration for 20 minutes at 4° C. The human HVEM bindings were detected by goat anti-mouse Alexa 488 secondary antibody (ThermoFisher, cat #A-11029). Cells were washed and acquired by flow cytometry with Attune. Data were analyzed with FlowJo software. BTLA binding is represented as MFI.
FACS based blocking assays of humanized anti-BTLA antibodies were performed as described above in Example 3.
On the technique in general: In flow cytometry, cells or beads pass a laser one at a time.

The target in experiment [12] is T6, extracellular domain of human BTLA with FAS, expressed on Jurkat cells (human, UniProt Q7Z6A9 31-157; P25445 174-335, limits assumed).
T6 sequence (looked up): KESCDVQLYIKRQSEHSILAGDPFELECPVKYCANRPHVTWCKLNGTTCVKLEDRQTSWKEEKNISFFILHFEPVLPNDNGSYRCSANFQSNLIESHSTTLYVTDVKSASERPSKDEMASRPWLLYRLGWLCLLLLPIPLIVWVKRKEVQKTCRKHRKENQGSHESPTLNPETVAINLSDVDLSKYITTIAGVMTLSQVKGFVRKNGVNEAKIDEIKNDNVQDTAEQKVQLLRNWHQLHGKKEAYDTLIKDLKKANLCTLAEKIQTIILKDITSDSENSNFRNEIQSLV
In words: cell-based or functional assay.

The target in experiment [13] is T1, human BTLA (Uniprot Q7Z6A9) expressed …. In words: cell-based or functional assay. The source holds these as a separate data set.

Changes are numbered by the printed parent chain.

B1: chimeric anti-BTLA antibody 96F11 (antibody, V domains shown)
VH: EVQLQQSGAELVKPGASVELSCTASGFNIKDTYIYWVKQRPEQGLQWIGRIDPANGHTKYDPRFQDKATLTAEISSNTAHLQLNSLTSEDTAVYFCVRGGDHPYYVMDWWGQGTSVTVSS
VL: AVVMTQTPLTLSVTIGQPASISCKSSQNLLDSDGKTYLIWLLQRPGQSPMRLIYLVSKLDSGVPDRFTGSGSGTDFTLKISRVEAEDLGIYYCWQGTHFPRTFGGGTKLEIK
As to B1, the “EC50 of recovery of IL-2 production, Raji-HVEM/Jurkat-BTLA coculture” value in experiment [1] amounted to 2540 pM. Besides, in [2], a half-maximal effect (EC50) was put at 48.2 pM. In experiment [3], this molecule came in with an IC50 of 1040 pM. For the same molecule, in experiment [4], the EC50 worked out at 57 pM. In addition, in experiment [5], the 50% effective concentration (EC50 (read off the curve)) was roughly 300 pM. In [6], this molecule yielded a Kd of 1180 pM, an off-rate constant (koff) of 0.000697 s⁻¹ and a kon of 607000 M⁻¹ s⁻¹. The half-maximal effective concentration (EC50 (read off the curve)) in [7] is roughly 400 pM.

B2: humanized anti-BTLA antibody SB2003-4 (antibody, V domains shown)
VH: QITLKESGPTLVKPTQTLTLTCTFSGFSLSTFGMGVSWIRQPPGKALEWLAHIYWDDDKRFNPSLKSRLTITKDTSKNQVVLTMTNMDPVDTATYYCARGNWDGETYFDYWGQGTLVTVSS
VL: DVVMTQSPLSLPVTLGQPASISCKSTQSLLDSDGKTYLNWLQQRPGQSPRSLIYLVSKLDSGVPDRFSGSGSGTDFTLKISRVEAEDVGVYYCWQGTHFPWTFGQGTKVEIK
Regarding B2, the “EC50 (read off the curve)” value in experiment [8] is roughly 800 pM. In experiment [9], the koff stood at 9.19e-05 s⁻¹ and the on-rate (kon) was 307000 M⁻¹ s⁻¹. The molecule also registered a dissociation constant Kd in [10] of 312 pM. The “IC50 (read off the curve)” value in experiment [11] was roughly 400 pM.

B3: humanized anti-BTLA antibody SB2003-10 (antibody, V domains shown)
VH: B2 VH with R99H
VL: B2 VL
For B3, in experiment [9], the koff was found to be 0.000179 s⁻¹ and the kon worked out at 356000 M⁻¹ s⁻¹. In [10], this molecule returned a dissociation constant (Kd) of 551 pM.

B4: humanized anti-BTLA antibody SB2003-9 (antibody, V domains shown)
VH: B2 VH with R99H
VL: B2 VL with L41F
In experiment [9], B4 showed an off-rate constant (koff) of 6.5e-05 s⁻¹ and a kon of 440000 M⁻¹ s⁻¹. In [10], the equilibrium dissociation constant (Kd) stood at 148 pM.

B5: humanized anti-BTLA antibody SB2003-6 (antibody, V domains shown)
VH: B2 VH with I2V
VL: B2 VL with S51R
B5: in [9], the off-rate (koff) amounted to 8.06e-05 s⁻¹ and the association rate constant (kon) is 134000 M⁻¹ s⁻¹. Further, the dissociation constant (Kd) in experiment [10] was determined as 604 pM.

B6: humanized anti-BTLA antibody SB2003-3 (antibody, V domains shown)
VH: B2 VH
VL: B2 VL with L41F
With B6, the concentration for a half-maximal effect (EC50 (read off the curve)) in [8] was roughly 800 pM. In experiment [9], the dissociation rate constant (koff) amounted to 9.48e-05 s⁻¹ and the kon stood at 291000 M⁻¹ s⁻¹. Further, in experiment [10], binding was put at a Kd of 308 pM. In addition, the “IC50 (read off the curve)” value in [11] is roughly 400 pM.

B7: humanized anti-BTLA antibody SB2003-2 (antibody, V domains shown)
VH: B2 VH
VL: B2 VL with S51R
Regarding B7, in experiment [9], the koff came to 0.000109 s⁻¹ and the association rate constant (kon) was 120000 M⁻¹ s⁻¹. Moreover, the equilibrium dissociation constant (Kd) in [10] stood at 797 pM.

B8: humanized anti-BTLA antibody SB2003-7 (antibody, V domains shown)
VH: B2 VH with I2V
VL: B2 VL with L41F
In experiment [9], B8 had an off-rate (koff) of 5.76e-05 s⁻¹ and a kon of 366000 M⁻¹ s⁻¹. For the same molecule, in experiment [10], binding was put at a Kd of 154 pM.

B9: humanized anti-BTLA antibody SB2003-8 (antibody, V domains shown)
VH: B2 VH with I2V
VL: B2 VL
In [9], B9 displayed a koff of 8.05e-05 s⁻¹ and a kon of 418000 M⁻¹ s⁻¹. Further, in [10], the equilibrium dissociation constant (Kd) worked out at 198 pM.

B10: humanized anti-BTLA antibody SB2003-11 (antibody, V domains shown)
VH: B2 VH with I2V, R99H
VL: B2 VL with L41F
For B10, the “EC50 of inhibition of huHVEM-Fc-induced apoptosis, Jurkat-huBTLA-FAS cells (ATP luminescence)” value in experiment [12] turned out to be 117 pM. Also, the “EC50 of recovery of IL-2 production, Raji-HVEM/primary human T cell coculture” value in experiment [13] was found to be 2300 pM. Further, in [8], the “EC50 (read off the curve)” value was roughly 800 pM. In [9], this molecule came in with a koff of 4.99e-05 s⁻¹ and an association rate constant (kon) of 384000 M⁻¹ s⁻¹. Besides, the affinity in [10], expressed as Kd, was 128 pM. In addition, the “IC50 (read off the curve)” value in experiment [11] was roughly 400 pM.

In general, EC50 refers to the concentration at which the effect is half-maximal. One may read the IC50 as the midpoint of a concentration-inhibition curve. The term EC50 (read off the curve) denotes the concentration that produces a half-maximal response. By Kd is commonly meant the equilibrium constant for the complex coming apart. Usually koff stands for the first-order rate constant of dissociation. By kon is commonly meant a measure of how fast the partners come together.
